The text below walks through data of the RNAGym collection of RNA variant scans (doi:10.1073/pnas.2313332121).

Variants at the floor of the assay were thinned out. A value given as a limit tells only on which side of the number the result lay.

B1: TPR 5TU (parent)
chain: GGAUCUUCUCGAUCUAACAAAAAAGACAAAUCUGCCACAAAGCUUGAGAGCAUCUUCGGAUGCAGAGGCGGCAGCCUUCGGUGGCGCGAUAGCGCCAACGUUCUCAACUAUGACACGCAAAACGCGUGCUCCGUUGAAUGGAGUUUAUCAUG

The data set covers variants of B1. The data set can be described thus: polymerase ribozyme fitness, log enrichment relative to wild type (log ratio); higher = more active; in vitro selection for triplet polymerase activity. In outline:
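To select mutant libraries of each subunit of a heterodimeric triplet polymerase ribozyme, built by PCR and transcribed, each was annealed with a biotinylated primer, partner subunit and triplets, then incubated frozen at −7 °C. Extended constructs were gel-excised, captured on streptavidin beads and amplified by RT-PCR, in one round carried out in triplicate. Illumina sequencing of input and output libraries kept genotypes with ≥10 input reads and ≥1 read per output. Fitness is the base-2 logarithm of genotype enrichment relative to wild-type enrichment, from inverse-variance-weighted replicate averages.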
For A30G U45G G46C C76U C87U U135A, the “polymerase ribozyme fitness (log ratio)” value is no more than -4.2.
Consider A20U C36A A41G U56A G65U A119G U127C, for which the “polymerase ribozyme fitness (log ratio)” value is no more than -4.2.
In the case of C54U C57U C79A C85U C93G A107G C123G, the “polymerase ribozyme fitness (log ratio)” value is no more than -4.2.
Then U6C A47C G81C C87G C96U, with no more than -4.2.
Next, A20C C99G: -1.06.
Next, A20G U33C C87U A89G U151G: no more than -4.2; G34A A106U A142U: no more than -4.2; A21U C27U C35A C57A G59C G74C G86U A89G U101G: no more than -4.2.
Consider A19C C27G G70A C76U G94U C103U A120U C129A U148C, for which the “polymerase ribozyme fitness (log ratio)” value is no more than -4.2.
C51G U56A A97U C123U: the “polymerase ribozyme fitness (log ratio)” value is -3.
Then G92C U111C, with -3.45; and G25C C72U A91G A119U U127A, with no more than -4.2.
Then A17G A20U C57G G84U C93A C96G A119U G141A, with no more than -4.2.
Next, C18U U53A G74C A107U U135C G140C: no more than -4.2.
As for A120U A121U U144G C149G, the “polymerase ribozyme fitness (log ratio)” value is -3.46.
Next, A49C C75A G81C C93G A106C U109A G136A: no more than -4.2; A21U C57A A142U: -0.38; A47U U55A G141U: -1.14.
Then C36U C85U G133A U135C, with -4.18.
As for G65U A73G G141A, the “polymerase ribozyme fitness (log ratio)” value is no more than -4.2.
Next, C14G G25C A47U G50A C93A U102A G124C: no more than -4.2; C27A U44A G48A: no more than -4.2; U6A C35A U104C: -3.88.
Then G48C C85U G94U C96U U144C, with -3.25.
Next, C32G G48C U53C U82G: no more than -4.2; G25C C38A G50C G92C U130G: no more than -4.2.
In the case of C57A A138C, the “polymerase ribozyme fitness (log ratio)” value was -3.77.
For G42A C93A U102G U135A, the “polymerase ribozyme fitness (log ratio)” value was no more than -4.2.
Next, A24U G58A C79G A91U C118A G141C: no more than -4.2; G92C U139A: -4.2.
Then A12C G62A A122U, with -0.923.
Then A17U A19C G42U U56C C76A G88A, with no more than -4.2.
Regarding A12U G92A, the “polymerase ribozyme fitness (log ratio)” value was -1.81.
Regarding U31A A41G C76U C93A G136A G140A, the “polymerase ribozyme fitness (log ratio)” value was -3.72.
Next, A64G A137G: no more than -4.2; C10U A19C U45G C72G U90C U135G: no more than -4.2; G88C U101C A113C U139G: no more than -4.2.
Then G50A C51U G74C U82C G140A U146G, with no more than -4.2.
Next, U56A C57A U144A: -0.177; U13C A16U: -0.079; U33G C54A G86A C87G A119U A122U G143C A147C: no more than -4.2.
As to U9G A24U U33C G143C A147C, the “polymerase ribozyme fitness (log ratio)” value was no more than -4.2.
In the case of C57A G92U, the “polymerase ribozyme fitness (log ratio)” value was -0.638.
Then C38U A52C A60G A119G, with 0.129; and A52C C85A, with -3.22.
Then A66G C123G, with no more than -4.2; and G84A U109G, with -1.95; and C10U A91U C96A A98U A142G U151C, with no more than -4.2.
Next, U45A U82G C129A U139A U145G: no more than -4.2; U4A C132G U139G: -3.71; G70A G74A U101G U104C A147U: no more than -4.2.
For the variant U31A A49G U55A G59U C96G, the “polymerase ribozyme fitness (log ratio)” value is -1.89.
Then C54U C85G C87G, with no more than -4.2; and C69U C85G, with -2.16.
Then U31C C35G C36U C51G G92C U109A U151A, with no more than -4.2.
Next, A41U U61A G68U A107C U145G: no more than -4.2; A49C G62A G94C A122U C132G A142C: no more than -4.2.
Take C14U A26U C54U C79U G94A U111G C123U: the “polymerase ribozyme fitness (log ratio)” value is no more than -4.2.
As for G81A A91G C99G A120C, the “polymerase ribozyme fitness (log ratio)” value was -4.
Next, C43U A73G: no more than -4.2.
Then C79U C93A, with -3.77; and A23C A39C C76A A97G G143C, with -3.82; and C103A A115C, with -2.54.
Next, U53A A98U: -1.39.
As to C14A A19G G48U A66C A73G G84U U135A U151G, the “polymerase ribozyme fitness (log ratio)” value was no more than -4.2.
Then C51G C76A C87U, with no more than -4.2; and A89U G94C A98G A150G, with -2.68.
Then A16C C36A G46C G68C C93U G112U A115C A122U G143U, with no more than -4.2; and G65C A66C G81A C85G A121G, with -4.16; and A40U C54U C85U C108U, with no more than -4.2.
Take U4C C18U G48U A49C G68U G74A C76A G88U C116G: the “polymerase ribozyme fitness (log ratio)” value was no more than -4.2.
Then G11U A19U C32U U33C G74A C85U G141U C149A, with no more than -4.2; and A26G U53A G88U G92U C118A A147G, with no more than -4.2; and C5A C79A G88A A106C, with no more than -4.2.
Next, C87U A106G U139C: -3.59; A52C U55A A66C C79G G133U A137G: no more than -4.2.
Then A16U G88C, with no more than -4.2; and C38U C57G A89U G100C, with no more than -4.2; and C5G A89G C96U U135G, with no more than -4.2.
As to U45A A142G, the “polymerase ribozyme fitness (log ratio)” value was -2.94.
Then G58U A142C, with -0.408.
Next, C57A G62C C76U A91U C108U G140U U144G C149G: no more than -4.2; C93U C116U C123A: -1.16.
Then A26G U44A C54U C87A C99U U111G G143U, with no more than -4.2.
